In patent publication US20200317768A1 (published 2020):
Where a chain is given by its changes, count along the chain named. Names and notes keep the numbering of the source.

T1: human FcγRIIaR extracellular domain, C-terminal His-tag (human, UniProt P12318 34-217)
T1 construct: also called human FcγRIIa (type R); FcgRIIaR; not shown: His-tag added to C-terminus
T1 chain: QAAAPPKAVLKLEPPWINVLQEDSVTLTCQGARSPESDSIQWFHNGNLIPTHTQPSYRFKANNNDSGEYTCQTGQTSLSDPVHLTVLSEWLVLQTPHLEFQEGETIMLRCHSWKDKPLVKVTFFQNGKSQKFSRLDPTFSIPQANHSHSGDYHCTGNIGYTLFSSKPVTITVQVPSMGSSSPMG

T2: cynomolgus monkey FcγRIIa3 extracellular domain, C-terminal His-tag (cynomolgus monkey)
T2 construct: also called cyno FcγRIIa3; cynoFcgRIIa3; not shown: His-tag added to C-terminus
T2 chain: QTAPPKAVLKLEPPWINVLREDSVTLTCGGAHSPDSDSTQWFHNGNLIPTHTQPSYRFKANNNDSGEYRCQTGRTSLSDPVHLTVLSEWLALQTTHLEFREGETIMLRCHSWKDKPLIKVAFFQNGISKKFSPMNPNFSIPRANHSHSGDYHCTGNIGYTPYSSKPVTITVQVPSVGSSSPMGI

T3: cynomolgus monkey FcγRIIb extracellular domain, C-terminal His-tag (cynomolgus monkey)
T3 construct: also called cyno FcγRIIb; cynoFcγRIIb; not shown: His-tag added to C-terminus
T3 chain: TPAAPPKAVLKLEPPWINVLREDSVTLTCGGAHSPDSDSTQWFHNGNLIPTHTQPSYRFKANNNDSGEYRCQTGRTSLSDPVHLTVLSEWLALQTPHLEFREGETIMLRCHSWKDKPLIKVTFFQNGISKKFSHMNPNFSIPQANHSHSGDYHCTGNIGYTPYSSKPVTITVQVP

T4: human FcγRIIaH extracellular domain, C-terminal His-tag (human, UniProt P12318 34-217)
T4 construct: also called human FcγRIIa (type H); FcgRIIaH; not shown: His-tag added to C-terminus
T4 sequence: T1 chain with R134H

T5: human FcγRIIb extracellular domain, C-terminal His-tag (human, UniProt P31994 43-217)
T5 construct: also called humanFcgRIIb; not shown: His-tag added to C-terminus
T5 sequence: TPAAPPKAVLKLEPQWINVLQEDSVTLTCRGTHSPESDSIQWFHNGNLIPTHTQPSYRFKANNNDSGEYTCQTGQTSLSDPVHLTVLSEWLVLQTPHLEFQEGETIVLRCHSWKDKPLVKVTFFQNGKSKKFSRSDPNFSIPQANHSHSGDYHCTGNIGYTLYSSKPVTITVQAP

T6: cynomolgus monkey FcγRIIa2 extracellular domain, C-terminal His-tag (cynomolgus monkey)
T6 construct: also called cyno FcγRIIa2; cynoFcgRIIa2; not shown: His-tag added to C-terminus
T6 chain: T2 chain with I127K, K130N, P133H, R142Q

T7: cynomolgus monkey FcγRIIa1 extracellular domain, C-terminal His-tag (cynomolgus monkey)
T7 construct: also called cyno FcγRIIa1; cynoFcgRIIa1; not shown: His-tag added to C-terminus
T7 chain: T2 chain with T95P, A121T, S128A, P133H, N135D

B1: M103205H795-SG1012 / M103202L889-SK1 (antibody, human IgG1, kappa)
heavy: QVTLKESGPVLVKPTETLTLTCTVSGIDLSHDDISWVRQAPGKGLEWVGIISYAGSTYYASWAKGRLTISKDTSKNQVVLTMTNMDPVDTATYYCARGVPAYSHGGDLWGQGTLVTVSSASTKGPSVFPLAPSSKSTSGGTAALGCLVKDYFPEPVTVSWNSGALTSGVHTFPAVLQSSGLYSLSSVVTVPSSSLGTQTYICNVNHKPSNTKVDKKVEPKSCDKTHTCPPCPAPELLNGPSVFLFPPKPKDTLMISRTPEVTCVVVDVSEEDPEVKFNWYVDGVEVHNAKTKPREEQYNSTYRVVSVLTVLHQDWLNGKEYKCKVSNKALPKPIEKTISKAKGQPREPQVYTLPPSREEMTKNQVSLTCLVKGFYPSDIAVEWESNGQPENNYKTTPMVLDSDGSFFLYSKLTVDKSRWQQGNVFSCSVMHEALHAHYTQKSLSLSP
light: DIVMTQSPATLSLSPGERATLSCTSSQSVYHANWLSWFQQKPGQPPKLLIYWASTLAYGVPSRFSGSGSGTDFTLTISSLQPEDAATYYCAGGYGGGRYAFGQGTKVEIKRTVAAPSVFIFPPSDEQLKSGTASVVCLLNNFYPREAKVQWKVDNALQSGNSQESVTEQDSKDSTYSLSSTLTLSKADYEKHKVYACEVTHQGLSSPVTKSFNRGEC
notes: the text says N434A was introduced into MY101 (which also has A330K); also called MS1032LO06-SG1012
B2: M103205H795-SG1031 / M103202L889-SK1 (antibody, human IgG1, kappa)
heavy: B1 heavy with E270D, Q313R, M398P, D415K
light: B1 light
notes: CH with G236N/H268D/Q311R/A330K/D413K/N434A against SG1 (EU numbering); also called MS1032LO06-SG1031
B3: M103205H795-SG1029 / M103202L889-SK1 (antibody, human IgG1, kappa)
heavy: B1 heavy with E270D, Q297L, Q313R, M398P, D415K
light: B1 light
notes: CH with G236N/H268D/Q295L/Q311R/A330K/D413K/N434A against SG1 (EU numbering); also called MS1032LO06-SG1029
B4: M103205H795-SG1016 / M103202L889-SK1 (antibody, human IgG1, kappa)
heavy: B1 heavy with Q313R, D401R
light: B1 light
notes: the text says Q311R/D399K; also called MS1032LO06-SG1016

Target: T1, human FcγRIIaR extracellular domain, …
Test: SPR (BIACORE); KD of parent SG1 / KD of variant;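 further: relative to parent M103205H795-SG1 carrying the SG1 human heavy chain constant region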
Description: (§1) The kinetic analysis of interactions between these antibodies and FcγR was carried out using BIACORE® T200 or BIACORE® 4000 (GE Healthcare). HBS-EP+ (GE Healthcare) was used as the running buffer, and the measurement temperature was set to 25° C. A chip produced by immobilizing Protein A. Protein A/G or mouse anti-human IgG kappa light chain (BD Biosciences) onto a Series S Sensor Chip CM4 or CM5 (GE Healthcare) by the amine-coupling method was used. […] After the measurement, the antibody captured on the chip was washed off by allowing reaction with 10 mM glycine-HCl, pH1.5 and 25 mM NaOH so that the chip was regenerated and used repeatedly. The sensorgrams obtained as measurement results were analyzed by the 1:1 Langmuir binding model using the BIACORE® Evaluation Software to calculate the binding rate constant ka (L/mol/s) and dissociation rate constant kd (l/s), and the dissociation constant KD (mol/L) was calculated from these values. […] Regarding such interactions, KD values were calculated using the following 1:1 binding model described in BIACORE® T100 Software Handbook BR1006-48 Edition AE.

| Binder | KD fold (SG1 = 1) |
| --- | --- |
| B1 | 1.4 fold |
| B2 | 1.3 fold |
| B3 | 0.8 fold |
| B4 | 1.2 fold |

Target: T2, cynomolgus monkey FcγRIIa3 …
Test: SPR (BIACORE); KD of parent SG1 / KD of variant;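 further: relative to parent M103205H795-SG1 carrying the SG1 human heavy chain constant region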
Description: as §1

| Binder | KD fold (SG1 = 1) |
| --- | --- |
| B1 | 3.8 fold |
| B2 | 3.1 fold |
| B3 | 2.8 fold |
| B4 | 3.9 fold |

Target: T3, cynomolgus monkey FcγRIIb extracellular …
Test: SPR (BIACORE); KD of parent SG1 / KD of variant;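 further: relative to parent M103205H795-SG1 carrying the SG1 human heavy chain constant region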
Description: as §1

| Binder | KD fold (SG1 = 1) |
| --- | --- |
| B1 | 7.2 fold |
| B2 | 3.9 fold |
| B3 | 4.9 fold |
| B4 | 6 fold |

These binders were tested against T4, human FcγRIIaH extracellular domain, … (assay: SPR (BIACORE); KD of parent SG1 / KD of variant;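 further: relative to parent M103205H795-SG1 carrying the SG1 human heavy chain constant region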).
Description: as §1

| Binder | KD fold (SG1 = 1) |
| --- | --- |
| B1 | 1.8 fold |
| B2 | 0.7 fold |
| B3 | 1.1 fold |
| B4 | 1.5 fold |

What follows are binders tested against T5, human FcγRIIb extracellular domain, … (assay: SPR (BIACORE); KD of parent SG1 / KD of variant).
Description: as §1

| Binder | KD fold (SG1 = 1) |
| --- | --- |
| B1 | 9.6 fold |
| B2 | 3.8 fold |
| B3 | 5.3 fold |
| B4 | 8.7 fold |

Target: T6, cynomolgus monkey FcγRIIa2 …
Test: SPR (BIACORE); KD of parent SG1 / KD of variant
Description: as §1

| Binder | KD fold (SG1 = 1) |
| --- | --- |
| B1 | 4.7 fold |
| B2 | 3.1 fold |
| B3 | 3.1 fold |
| B4 | 4.1 fold |

What follows are binders tested against T8, human FcγRIIIaV extracellular domain, C-terminal His-tag (human, UniProt P08637 17-208) (assay: SPR (BIACORE); KD of parent SG1 / KD of variant).
T8 construct: also called FcgRIIIaV; not shown: His-tag added to C-terminus
T8 sequence (P08637 17-208 F176V): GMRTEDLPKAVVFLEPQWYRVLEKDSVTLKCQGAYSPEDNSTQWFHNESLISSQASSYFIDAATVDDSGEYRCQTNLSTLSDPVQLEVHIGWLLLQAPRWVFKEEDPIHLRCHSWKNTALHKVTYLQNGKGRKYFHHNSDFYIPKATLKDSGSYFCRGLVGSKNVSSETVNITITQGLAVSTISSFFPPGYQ
Description: as §1

| Binder | KD fold (SG1 = 1) |
| --- | --- |
| B1 | 0.11 fold |
| B2 | 0.04 fold |
| B3 | 0.03 fold |
| B4 | 0.06 fold |

Target: T7, cynomolgus monkey FcγRIIa1 …
Test: SPR (BIACORE); KD of parent SG1 / KD of variant
Description: as §1

| Binder | KD fold (SG1 = 1) |
| --- | --- |
| B1 | 4.4 fold |
| B2 | 2.6 fold |
| B3 | 3.5 fold |
| B4 | 3.8 fold |

These binders were tested against T9, cynomolgus monkey FcγRIIIaS extracellular domain, C-terminal His-tag (cynomolgus monkey, UniProt A3RFZ7 21-206 (rhesus entry)) (assay: SPR (BIACORE); KD of parent SG1 / KD of variant).
T9 construct: also called cyno FcγRIIIaS; cynoFcγRIIIaS; not shown: His-tag added to C-terminus
T9 sequence (A3RFZ7 21-206): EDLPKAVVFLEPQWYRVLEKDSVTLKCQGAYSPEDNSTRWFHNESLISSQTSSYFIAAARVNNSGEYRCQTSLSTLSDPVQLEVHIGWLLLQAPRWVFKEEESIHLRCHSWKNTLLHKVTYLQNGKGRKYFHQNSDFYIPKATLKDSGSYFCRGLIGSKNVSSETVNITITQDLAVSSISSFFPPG
Description: as §1

| Binder | KD fold (SG1 = 1) |
| --- | --- |
| B1 | 0.13 fold |
| B2 | 0.06 fold |
| B3 | 0.05 fold |
| B4 | 0.12 fold |

Target: T1, human FcγRIIaR extracellular domain, …
Test: SPR (BIACORE), antibody captured, FcγR analyte
Description: as §1

| Binder | Kd |
| --- | --- |
| B1 | 750 nM |
| B2 | 800 nM |
| B3 | 1300 nM |
| B4 | 820 nM |

Target: T2, cynomolgus monkey FcγRIIa3 …
Test: SPR (BIACORE), antibody captured, FcγR analyte
Description: as §1

| Binder | Kd |
| --- | --- |
| B1 | 2300 nM |
| B2 | 2800 nM |
| B3 | 3100 nM |
| B4 | 2200 nM |

Target: T3, cynomolgus monkey FcγRIIb extracellular …
Test: SPR (BIACORE), antibody captured, FcγR analyte
Description: as §1

| Binder | Kd |
| --- | --- |
| B1 | 270 nM |
| B2 | 500 nM |
| B3 | 400 nM |
| B4 | 330 nM |

What follows are binders tested against T4, human FcγRIIaH extracellular domain, … (assay: SPR (BIACORE), antibody captured, FcγR analyte).
Description: as §1

| Binder | Kd |
| --- | --- |
| B1 | 500 nM |
| B2 | 1800 nM |
| B3 | 790 nM |
| B4 | 500 nM |

The binders below were run against T5, human FcγRIIb extracellular domain, … (assay: SPR (BIACORE), antibody captured, FcγR analyte).
Description: as §1

| Binder | Kd |
| --- | --- |
| B1 | 490 nM |
| B2 | 1200 nM |
| B3 | 900 nM |
| B4 | 550 nM |

Target: T6, cynomolgus monkey FcγRIIa2 …
Test: SPR (BIACORE), antibody captured, FcγR analyte
Description: as §1

| Binder | Kd |
| --- | --- |
| B1 | 1000 nM |
| B2 | 1500 nM |
| B3 | 1500 nM |
| B4 | 1100 nM |

What follows are binders tested against T8, human FcγRIIIaV extracellular domain, … (assay: SPR (BIACORE), antibody captured, FcγR analyte).
Description: as §1

| Binder | Kd |
| --- | --- |
| B1 | 5800 nM |
| B2 | 15000 nM |
| B3 | 20000 nM |
| B4 | 10000 nM |

Target: T7, cynomolgus monkey FcγRIIa1 …
Test: SPR (BIACORE), antibody captured, FcγR analyte
Description: as §1

| Binder | Kd |
| --- | --- |
| B1 | 1100 nM |
| B2 | 1800 nM |
| B3 | 1400 nM |
| B4 | 1300 nM |

What follows are binders tested against T9, cynomolgus monkey FcγRIIIaS … (assay: SPR (BIACORE), antibody captured, FcγR analyte).
Description: as §1

| Binder | Kd |
| --- | --- |
| B1 | 2100 nM |
| B2 | 4400 nM |
| B3 | 5300 nM |
| B4 | 2400 nM |
